In US20230174642A1, “AFFINITY-MATURATED ANTI-ASIC1a ANTIBODIES” (SHANGHAITECH UNIVERSITY, priority 2019, published 2023):
Changes are numbered by the printed parent chain. Blank lines part the entries; values can stand above or below the binder they belong to.

Assays:
[1] = biological target: T1, mouse ASIC1a-eYFP (mASIC1a-eYFP) on transiently transfected CHO-K1 cells (mouse, UniProt Q6NXK8 1-526); test: FACS on transiently transfected CHO-K1 cells
T1 construct: whole, on cells; not shown: eYFP fusion partner
T1 sequence (looked up): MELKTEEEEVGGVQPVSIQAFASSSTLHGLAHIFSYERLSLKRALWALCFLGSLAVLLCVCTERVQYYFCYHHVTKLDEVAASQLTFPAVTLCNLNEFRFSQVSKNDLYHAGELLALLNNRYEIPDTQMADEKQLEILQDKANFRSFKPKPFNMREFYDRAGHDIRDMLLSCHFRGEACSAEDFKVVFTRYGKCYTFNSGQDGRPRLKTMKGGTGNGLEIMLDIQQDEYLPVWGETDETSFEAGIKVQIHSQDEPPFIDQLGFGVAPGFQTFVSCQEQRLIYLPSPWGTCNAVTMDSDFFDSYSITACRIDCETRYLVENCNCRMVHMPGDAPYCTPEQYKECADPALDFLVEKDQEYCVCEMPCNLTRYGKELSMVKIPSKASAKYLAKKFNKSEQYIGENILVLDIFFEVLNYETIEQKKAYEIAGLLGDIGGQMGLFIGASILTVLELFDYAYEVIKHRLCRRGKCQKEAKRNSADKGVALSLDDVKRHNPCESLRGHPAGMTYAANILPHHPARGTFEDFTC
Procedure: To investigate the species selectivity of ASC06-IgG1 affinity-matured antibodies, plasmids encoding fusion proteins of eYFP with […] homologs of ASIC1a were constructed. These plasmids included those encoding human ASIC1a (hASIC1a-eYFP), mouse ASIC1a (mASIC1a-eYFP), and rat ASIC1a (rASIC1a-eYFP). CHO-K1 cells were transiently transfected with the ASIC1a-eYFP plasmids, and a fluorescence activated cell sorting (FACS)-based binding assay was carried out to determine binding to the homologs or isoforms of ASIC1a expressed on the cell surface. An isotype control was used as a negative control for binding (NC). ASC06-IgG1 was used as a positive control. Summarily, the CHO-K1 cells expressing the ASIC1a-eYFP (green) homologs were stained with the indicated antibody (red) and subjected to FACS.
To examine the ASIC isotype selectivity of ASC06-IgG1 affinity-matured antibodies, plasmids encoding fusion proteins of eYFP with isoforms of […] were constructed. These plasmids included those encoding human ASIC1b (hASIC1b-eYFP), human ASIC2a (hASIC2a-eYFP), and human ASIC3a (hASIC3a-eYFP). CHO-K1 cells were transiently transfected with these plasmids and used in a FACS-based binding assay disclosed herein. Binding of ASC06-IgG1 to CHO-K1 cells expressing human ASIC1a-eYFP (hASIC1a-eYFP) was used as a positive control (data not shown and FIG. 2), and an isotype control was used as a negative control for binding (NC).

[2] = biological target: T2, hASIC1a-mCherry fusion on a stable cell line (human, UniProt P78348 1-528); test: cell-based or functional assay
T2 sequence (looked up): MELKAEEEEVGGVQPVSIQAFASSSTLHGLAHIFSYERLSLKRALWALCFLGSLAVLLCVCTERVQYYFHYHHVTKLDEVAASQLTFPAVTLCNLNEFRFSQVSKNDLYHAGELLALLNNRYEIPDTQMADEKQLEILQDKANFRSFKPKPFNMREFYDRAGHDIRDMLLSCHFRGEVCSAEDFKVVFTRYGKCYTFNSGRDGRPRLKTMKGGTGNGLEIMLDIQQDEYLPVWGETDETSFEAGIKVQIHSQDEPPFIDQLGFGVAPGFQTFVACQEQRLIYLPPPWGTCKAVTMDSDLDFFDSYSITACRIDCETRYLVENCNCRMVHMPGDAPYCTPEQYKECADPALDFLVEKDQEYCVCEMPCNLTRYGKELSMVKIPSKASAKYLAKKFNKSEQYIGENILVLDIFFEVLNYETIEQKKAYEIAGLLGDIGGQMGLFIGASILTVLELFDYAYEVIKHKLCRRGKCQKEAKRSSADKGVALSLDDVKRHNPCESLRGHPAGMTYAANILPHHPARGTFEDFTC

[3] = biological target: T3, hASIC1a on CHO-K1 cells stably expressing hASIC1a (human, UniProt P78348 1-528); test: cell-based or functional assay
T3 sequence (looked up): T2 sequence (looked up)

[4] = biological target: T3, hASIC1a on CHO-K1 cells stably …; test: cell-based or functional assay; remark: listed apart in the source

binding result [1]: binds
IC50 for the inhibition of acid induced ASIC1a-mediated calcium influx, FLIPR-based assay [2]: 1.97 nM
Percent inhibition of the acid induced-hASIC1a currents, 30 nM antibody (Patch Clamp) [3]: 94.6%
Percent inhibition of the acid induced-hASIC1a currents, 100 nM antibody (Patch Clamp) [3]: 97.2%
IC50 for the inhibition of ASIC1a currents, FMP assay [4]: 30.5 nM
B1: ASC06-02-IgG1 (antibody, V domains shown)
VH: QVQLQQSGGGLVQPGGSLRLSCAASGFTFSSYAMSWVRQAPGKGLEWVSAISGSGGSTYYADSVKGRFTISRDNSKNTLYLQMNSLRAEDTAVYYCAKDSFFGRAKGSWGQGTLVTVSS
VL: QSALTQPASVSGSPGQSITISCTGTSSDVGAYNYVSWYQQQPGKAPKLMIYGVSNRPSGVSNRFSGSKSGNAASLTISGLQAEDEADYYCSSYTSSSTYVFGTGTKLTVLG
notes: Full length IgG1

binding result [1]: binds
IC50 for the inhibition of acid induced ASIC1a-mediated calcium influx, FLIPR-based assay [2]: 2.11 nM
Percent inhibition of the acid induced-hASIC1a currents, 30 nM antibody (Patch Clamp) [3]: 35.5%
Percent inhibition of the acid induced-hASIC1a currents, 100 nM antibody (Patch Clamp) [3]: 55.5%
IC50 for the inhibition of ASIC1a currents, FMP assay [4]: 251 nM
B2: ASC06-IgG1 (antibody, V domains shown)
VH: B1 VH with F102Y, R104Y, A105S, S108D
VL: B1 VL
notes: Tested as full length IgG1; also called WT antibody ASC06-IgG1; parental ASC06-IgG1 antibody
